Experimental findings from ChEMBL document CHEMBL1129640, “Assessment of structural requirements for the monoamine oxidase-B-catalyzed oxidation of 1,4-disubstituted-1,2,3,6-tetrahydropyridine derivatives related to the neurotoxin 1-methyl-4-phenyl-1,2,3,6-tetrahydropyridine” (J Med Chem, 1996) are described below.

Values joined by “and” are separate entries in the source; they are usually repeats but may differ in a detail not shown here. Equal values may be shown once.

The term Km denotes the substrate concentration at which the rate is half of its maximum. The term kcat denotes the number of substrate molecules converted per active site and unit of time at saturation.

Substrate in data set [1]: COc1ccc(C2=CCN(C)CC2)cc1
Put plainly: Michaelis-Menten constant was measured against monoamine oxidase B (MAO-B) from beef liver; Inactive.

Substrate in data set [2]: CN1CC=C(c2ccc(Br)cc2)CC1
Put plainly: (§1) Michaelis-Menten constant was measured against monoamine oxidase B (MAO-B) from beef liver.

Substrate in data set [3]: CN1CC=C(c2ccc(F)cc2)CC1
The data set is described as §1.

Substrate in data set [4]: Cc1ccc(C2=CCN(C)CC2)cc1
The description is as §1.

Substrate in data set [5]: CCc1ccc(C2=CCN(C)CC2)cc1
The description is as §1.

Substrate in data set [6]: CN1CC=C(c2ccc(Cl)cc2)CC1
Described as §1.

B1: Amine oxidase [flavin-containing] B (Bos taurus) (protein)
chain: MSSKCDVVVVGGGISGMAAAKLLHDSGLNVIVLEARDRVGGRTYTLRNQKVKYVDLGGSYVGPTQNHILRLSKELGLETYKVNEVERLIHHTKGKSYPFRGSFPSVWNPITYLDHNNLWRTMDDMGREIPSDAPWKAPLAEQWDLMTMKELLDKICWTESSKQLAILFVNLCVTAEIHEVSALWFLWYVKQCGGTTRIFSTSNGGQERKFVGGSGQVSERIMDLLGDRVKLERPVIHIDQTGENVLVETLNHELYEAKYVISAVPPVLGMKIHFNPPLPMMRNQLITRVPLGSVIKSIVYYKEPFWRNMDYCGSMIIEGEEAPVAYALDDTKPDGSYPAIIGFILAHKARKLARLTKEERLKKLCDLYAKVLGSQEALHPVHYEEKNWCEEQYSGGCYTSYFPPGIMTQYGRVLRQPVGRIYFAGTETATHWSGYMEGAVEAGERAAREILHAMGKIPEDEIWLPEPESVDVPAKPITTTFLQRHLPSVPGLLKLIGLTTIFSATALGFLAHKRGLLVRI
On to B1, for which the Michaelis-Menten constant (Km) in data set [1] was 940 µM; in data set [2], 140 µM; in data set [3], 220 µM; in data set [4] it was 500 µM and 490 µM; in data set [5], 1890 µM; in data set [6], 180 µM and 200 µM. For the same protein, the catalytic constant (kcat) in data set [1] stood at 1.13 s⁻¹; in data set [2] it was 1.18 s⁻¹; in data set [3], 1.55 s⁻¹; in data set [5], 1.42 s⁻¹.
